Measurements taken from the supplement of paper PMC9112550, “Optimization of the antimicrobial peptide Bac7 by deep mutational scanning” (BMC Biology, 2022).

What follows are sequences tested on Escherichia coli TOP10 (assay: shrunken log2 fold change of peptide-encoding DNA abundance (4.5 h post-induction vs induction); higher = less antimicrobial activity (less host growth inhibition)). Details: time post-induction: 4.5 h; library: site-saturation at positions 5, 18, 19, 20.
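Note: peptides expressed intracellularly from a pBAD plasmid library in pooled LB shake-flask culture, induced with 0.3% L-arabinose, DNA abundance read by NGS, three biological replicates, DESeq2 with apeglm shrinkage.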

Row | Sequence | shrunken log2 fold change
1 | RRIRCRPPRLPRPRPRPNEDPRP | 0.0261
2 | RRIRCRPPRLPRPRPRPNEIPRP | -0.0995
3 | RRIRCRPPRLPRPRPRPNFPPRP | 0.346
4 | RRIRCRPPRLPRPRPRPNGQPRP | -0.0579
5 | RRIRCRPPRLPRPRPRPNGSPRP | -0.398
6 | RRIRCRPPRLPRPRPRPNGTPRP | -0.0476
7 | RRIRCRPPRLPRPRPRPNHFPRP | -0.484
8 | RRIRCRPPRLPRPRPRPNHTPRP | -0.536
9 | RRIRCRPPRLPRPRPRPNIAPRP | -0.275
10 | RRIRCRPPRLPRPRPRPNIRPRP | -0.517
11 | RRIRCRPPRLPRPRPRPNKAPRP | -0.116
12 | RRIRCRPPRLPRPRPRPNKSPRP | -0.584
13 | RRIRCRPPRLPRPRPRPNKVPRP | -0.142
14 | RRIRCRPPRLPRPRPRPNLKPRP | -0.585
15 | RRIRCRPPRLPRPRPRPNMCPRP | -0.222
16 | RRIRCRPPRLPRPRPRPNMSPRP | -0.204
17 | RRIRCRPPRLPRPRPRPNNKPRP | -0.71
18 | RRIRCRPPRLPRPRPRPNQDPRP | -0.348
19 | RRIRCRPPRLPRPRPRPNQQPRP | 0.00277
20 | RRIRCRPPRLPRPRPRPNQYPRP | -0.92
21 | RRIRCRPPRLPRPRPRPNRHPRP | -0.388
22 | RRIRCRPPRLPRPRPRPNSHPRP | -0.556
23 | RRIRCRPPRLPRPRPRPNTWPRP | -0.539
24 | RRIRCRPPRLPRPRPRPNVPPRP | -0.154
25 | RRIRCRPPRLPRPRPRPNWVPRP | -0.279

Row | Sequence | shrunken log2 fold change
26 | RRIRCRPPRLPRPRPRPNWYPRP | 0.09
27 | RRIRCRPPRLPRPRPRPNYGPRP | -0.297
28 | RRIRCRPPRLPRPRPRPNYMPRP | -0.677
29 | RRIRCRPPRLPRPRPRPNYWPRP | -0.326
30 | RRIRCRPPRLPRPRPRPPAHPRP | 2.07
31 | RRIRCRPPRLPRPRPRPPAWPRP | 0.692
32 | RRIRCRPPRLPRPRPRPPCNPRP | -0.355
33 | RRIRCRPPRLPRPRPRPPDLPRP | -0.00662
34 | RRIRCRPPRLPRPRPRPPDPPRP | 0.459
35 | RRIRCRPPRLPRPRPRPPERPRP | 0.576
36 | RRIRCRPPRLPRPRPRPPGAPRP | 0.678
37 | RRIRCRPPRLPRPRPRPPGEPRP | 0.609
38 | RRIRCRPPRLPRPRPRPPGKPRP | 0.141
39 | RRIRCRPPRLPRPRPRPPGVPRP | 0.158
40 | RRIRCRPPRLPRPRPRPPGYPRP | 0.422
41 | RRIRCRPPRLPRPRPRPPHQPRP | 0.746
42 | RRIRCRPPRLPRPRPRPPKKPRP | 0.132
43 | RRIRCRPPRLPRPRPRPPKPPRP | 0.692
44 | RRIRCRPPRLPRPRPRPPKRPRP | 0.797
45 | RRIRCRPPRLPRPRPRPPPGPRP | 1.47
46 | RRIRCRPPRLPRPRPRPPPQPRP | 1.34
47 | RRIRCRPPRLPRPRPRPPQEPRP | -0.069
48 | RRIRCRPPRLPRPRPRPPRCPRP | 1.9
49 | RRIRCRPPRLPRPRPRPPVKPRP | -0.00107
50 | RRIRCRPPRLPRPRPRPPWIPRP | -0.209

Row | Sequence | shrunken log2 fold change
51 | RRIRCRPPRLPRPRPRPPWNPRP | -0.0539
52 | RRIRCRPPRLPRPRPRPPYKPRP | -0.511
53 | RRIRCRPPRLPRPRPRPPYYPRP | -0.314
54 | RRIRCRPPRLPRPRPRPQAEPRP | 0.215
55 | RRIRCRPPRLPRPRPRPQALPRP | 0.0319
56 | RRIRCRPPRLPRPRPRPQAVPRP | -0.154
57 | RRIRCRPPRLPRPRPRPQCHPRP | 0.134
58 | RRIRCRPPRLPRPRPRPQCPPRP | -0.399
59 | RRIRCRPPRLPRPRPRPQCVPRP | -0.0975
60 | RRIRCRPPRLPRPRPRPQDCPRP | -0.241
61 | RRIRCRPPRLPRPRPRPQDGPRP | 0.143
62 | RRIRCRPPRLPRPRPRPQDLPRP | -0.472
63 | RRIRCRPPRLPRPRPRPQDWPRP | -0.0628
64 | RRIRCRPPRLPRPRPRPQEGPRP | -0.0193
65 | RRIRCRPPRLPRPRPRPQETPRP | 0.00739
66 | RRIRCRPPRLPRPRPRPQGHPRP | -0.0916
67 | RRIRCRPPRLPRPRPRPQHYPRP | -0.796
68 | RRIRCRPPRLPRPRPRPQKEPRP | -0.104
69 | RRIRCRPPRLPRPRPRPQLFPRP | -0.242
70 | RRIRCRPPRLPRPRPRPQLIPRP | 0.229
71 | RRIRCRPPRLPRPRPRPQMGPRP | -0.273
72 | RRIRCRPPRLPRPRPRPQNAPRP | -0.372
73 | RRIRCRPPRLPRPRPRPQNNPRP | -0.526
74 | RRIRCRPPRLPRPRPRPQQHPRP | -0.113
75 | RRIRCRPPRLPRPRPRPQQKPRP | 0.13

Row | Sequence | shrunken log2 fold change
76 | RRIRCRPPRLPRPRPRPQRMPRP | -0.0914
77 | RRIRCRPPRLPRPRPRPQVQPRP | 0.0244
78 | RRIRCRPPRLPRPRPRPQWKPRP | -0.0376
79 | RRIRCRPPRLPRPRPRPQWNPRP | 0.618
80 | RRIRCRPPRLPRPRPRPQWYPRP | -0.321
81 | RRIRCRPPRLPRPRPRPRAGPRP | 0.472
82 | RRIRCRPPRLPRPRPRPRAMPRP | 0.914
83 | RRIRCRPPRLPRPRPRPRARPRP | 0.708
84 | RRIRCRPPRLPRPRPRPRCKPRP | -0.206
85 | RRIRCRPPRLPRPRPRPREDPRP | 0.0389
86 | RRIRCRPPRLPRPRPRPRFIPRP | -0.171
87 | RRIRCRPPRLPRPRPRPRGPPRP | 0.816
88 | RRIRCRPPRLPRPRPRPRGWPRP | 0.605
89 | RRIRCRPPRLPRPRPRPRIPPRP | -0.00295
90 | RRIRCRPPRLPRPRPRPRKFPRP | -0.00353
91 | RRIRCRPPRLPRPRPRPRLIPRP | 0.0496
92 | RRIRCRPPRLPRPRPRPRMAPRP | 0.331
93 | RRIRCRPPRLPRPRPRPRMEPRP | 0.0253
94 | RRIRCRPPRLPRPRPRPRNDPRP | -0.191
95 | RRIRCRPPRLPRPRPRPRNFPRP | -0.0465
96 | RRIRCRPPRLPRPRPRPRNLPRP | -0.222
97 | RRIRCRPPRLPRPRPRPRPTPRP | 0.808
98 | RRIRCRPPRLPRPRPRPRRDPRP | 0.0823
99 | RRIRCRPPRLPRPRPRPRRVPRP | 0.342
100 | RRIRCRPPRLPRPRPRPRTCPRP | 0.0191

Row | Sequence | shrunken log2 fold change
101 | RRIRCRPPRLPRPRPRPRYSPRP | -0.712
102 | RRIRCRPPRLPRPRPRPSCTPRP | -0.287
103 | RRIRCRPPRLPRPRPRPSETPRP | 0.108
104 | RRIRCRPPRLPRPRPRPSFIPRP | -0.811
105 | RRIRCRPPRLPRPRPRPSFTPRP | -0.668
106 | RRIRCRPPRLPRPRPRPSGRPRP | 0.235
107 | RRIRCRPPRLPRPRPRPSHFPRP | -0.345
108 | RRIRCRPPRLPRPRPRPSHTPRP | -0.283
109 | RRIRCRPPRLPRPRPRPSIEPRP | -0.123
110 | RRIRCRPPRLPRPRPRPSIKPRP | -0.597
111 | RRIRCRPPRLPRPRPRPSIRPRP | -0.608
112 | RRIRCRPPRLPRPRPRPSITPRP | -0.641
113 | RRIRCRPPRLPRPRPRPSKNPRP | -0.382
114 | RRIRCRPPRLPRPRPRPSLYPRP | -0.518
115 | RRIRCRPPRLPRPRPRPSMNPRP | -0.757
116 | RRIRCRPPRLPRPRPRPSNEPRP | -0.379
117 | RRIRCRPPRLPRPRPRPSNMPRP | -0.604
118 | RRIRCRPPRLPRPRPRPSPAPRP | 1.35
119 | RRIRCRPPRLPRPRPRPSPRPRP | 0.485
120 | RRIRCRPPRLPRPRPRPSPSPRP | 0.128
121 | RRIRCRPPRLPRPRPRPSQTPRP | -0.338
122 | RRIRCRPPRLPRPRPRPSREPRP | -0.184
123 | RRIRCRPPRLPRPRPRPSRIPRP | -0.562
124 | RRIRCRPPRLPRPRPRPSSAPRP | -0.278
125 | RRIRCRPPRLPRPRPRPSTGPRP | -0.354

Row | Sequence | shrunken log2 fold change
126 | RRIRCRPPRLPRPRPRPSTTPRP | -0.257
127 | RRIRCRPPRLPRPRPRPSTVPRP | -0.443
128 | RRIRCRPPRLPRPRPRPSVEPRP | 0.00103
129 | RRIRCRPPRLPRPRPRPSVRPRP | -0.362
130 | RRIRCRPPRLPRPRPRPSWNPRP | -0.68
131 | RRIRCRPPRLPRPRPRPSWSPRP | -0.263
132 | RRIRCRPPRLPRPRPRPSWWPRP | 0.205
133 | RRIRCRPPRLPRPRPRPSYIPRP | -0.675
134 | RRIRCRPPRLPRPRPRPSYWPRP | -0.71
135 | RRIRCRPPRLPRPRPRPTDHPRP | -0.257
136 | RRIRCRPPRLPRPRPRPTFGPRP | -0.213
137 | RRIRCRPPRLPRPRPRPTFHPRP | -0.366
138 | RRIRCRPPRLPRPRPRPTFIPRP | -0.307
139 | RRIRCRPPRLPRPRPRPTHEPRP | 0.628
140 | RRIRCRPPRLPRPRPRPTIPPRP | -0.417
141 | RRIRCRPPRLPRPRPRPTIQPRP | -0.508
142 | RRIRCRPPRLPRPRPRPTISPRP | -0.381
143 | RRIRCRPPRLPRPRPRPTKQPRP | -0.0825
144 | RRIRCRPPRLPRPRPRPTLSPRP | -0.0995
145 | RRIRCRPPRLPRPRPRPTNAPRP | 0.307
146 | RRIRCRPPRLPRPRPRPTNGPRP | -0.0378
147 | RRIRCRPPRLPRPRPRPTQAPRP | 0.199
148 | RRIRCRPPRLPRPRPRPTQYPRP | -0.0607
149 | RRIRCRPPRLPRPRPRPTRGPRP | 0.807
150 | RRIRCRPPRLPRPRPRPTRMPRP | 0.0511
